Reference: publication PMC5240623, “Methylation specific targeting of a chromatin remodeling complex from sponges to humans” (Scientific Reports, 2017)
No end group written: not given here.

Biological target: T1, HsGATAD2A coiled-coil domain, uncleaved fusion peptide (human, UniProt Q86YP4 137-178)
T1 construct: GATAD2A (p66α), human, coiled-coil domain; the purification of this construct is not described here; also called GATAD2A (p66α)
Assay: ITC; fusion peptides left uncleaved; 50 mM Hepes pH 7.4, 150 mM NaCl, 298 K; MicroCal Auto-iTC200, 20–24 injections; HsMBD2 (1.8 mM), EmGATAD2A/B (2.74 mM), DmGATAD2A/B (2.5 mM) injected into HsGATAD2A (100 μM), EmMBD2/3 (270 μM), DmMBD2/3 (250 μM); one-site binding model
Conditions: both partners purified

T1 sequence (Q86YP4 137-178): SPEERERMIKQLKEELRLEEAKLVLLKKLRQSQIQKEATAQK

- Kd: 48 nM
- dH: -9.93 kcal/mol
- stoichiometry N: 1.3
B1: HsMBD2 coiled-coil domain, uncleaved fusion peptide (domain or fragment, human)
chain: KAFIVTDEDIRKQEERVQQVRKKLEEALMADILS
modifications: also: uncleaved fusion tag
notes: MBD2, human, coiled-coil domain; the purification of this construct is not described here
